This passage reports Kd, percent decrease of binding with 50 mM tranexamic acid, against reactions without it and percent of binding left with 1 M NaBr, against reactions without NaBr results from publication PMC4521846.

The target of assay [1] is Plasminogen (Homo sapiens) (UniProt P00747). As to conditions: cited from earlier work.
In assay [2] the target is Translation elongation factor Tuf of Acinetobacter baumannii type strain ATCC 19606, recombinant, N-terminally hexahistidine-tagged (Acinetobacter baumannii ATCC 19606) (UniProt B7H1K5). As to the kind of experiment: ELISA; immobilised Tuf (5 ug/ml) incubated with increasing amounts of plasminogen; apparent dissociation constants by non-linear regression. (In general: ELISA stands for enzyme-linked immunosorbent assay.)

Assay [3] deals with Elongation factor Tuf of Legionella pneumophila, recombinant, hexahistidine-tagged (Legionella pneumophila). As to the kind of experiment: ELISA.
Assay [4] has as its target Translation elongation factor Tuf of Acinetobacter baumannii type strain ATCC 19606, recombinant, N-terminally hexahistidine-tagged (Acinetobacter baumannii ATCC 19606) (UniProt B7H1K5). As to the kind of experiment: ELISA; immobilised TufAb, plasminogen (10 ug/ml) with increasing concentrations of the lysine analog tranexamic acid (up to 50 mM).
The target is the same in assay [5]. As to the kind of experiment: ELISA; immobilised TufAb, plasminogen (10 ug/ml) with increasing concentrations of NaBr (up to 1 M).
Assay [6] concerns the target Plasminogen (Homo sapiens) (UniProt P00747). The note with it: cited from earlier work. This is another data set of the same source.

Read-outs that look alike come from different tables or passages of the source.

On to DnaK (from UniProt B8DT62), for which the Kd in assay [1] was 11 nM.

Take Human glu-plasminogen (natural protein): the Kd in assay [2] came to 57 nM; in assay [3] it was 69 nM. Besides, the percent decrease of binding with 50 mM tranexamic acid, against reactions without it in assay [4] amounted to 50%. Also, the percent of binding left with 1 M NaBr, against reactions without NaBr in assay [5] was 55%.

Consider Enolase (from UniProt B8DTI9), for which, in assay [6], the Kd is 42 nM.
